Test results: patent US8318640B2, “Methods for selective targeting” (Danisco US Inc., priority 2000, dated 2012)
Square brackets hold non-standard residues; d marks the D form. Ends that are not written are not given here. 14C‑Gly = 14C-labelled glycine

Columns and labels:
(h) TNF-α [1] = biological target: T1, (h) TNF-α (Homo sapiens, UniProt P01375); assay: Selective targeting of a phage-displayed 7-mer library on TNF-α, PCR identification of bound clones; type: binding; parameters: purchased BioSource International; Camarillo, Calif; settings: number of multiple times this amino acid sequence occurred out of 24 clones sequenced; binds TNF-alpha and not SuperBlock
T1 sequence (P01375 77-233 limits assumed): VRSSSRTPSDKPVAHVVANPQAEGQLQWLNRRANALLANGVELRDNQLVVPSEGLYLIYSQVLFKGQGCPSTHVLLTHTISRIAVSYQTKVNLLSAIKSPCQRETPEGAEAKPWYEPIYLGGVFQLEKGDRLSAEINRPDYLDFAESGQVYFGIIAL
Procedure: A thin-walled PCR tube was coated with the target human (h) TNF-α (BioSource International; Camarillo, Calif.) by incubating 100 μl of 0.5 mg/ml purified TNF-α in PBS overnight at 4° C. in the PCR tube. Excess unbound TNF-α was removed, and the tube was coated overnight at 4° C. with 100 μl of SuperBlock™ blocking buffer (Pierce: Rockford, Ill.) in Tris buffered saline (TBS). The anti-target (SuperBlock™ blocking buffer) was prepared in separate PCR tubes coated overnight at 4° C. with 100 μl of SuperBlock™.
Unbound phage were removed by washing the tube 5 times with 150 μl PBS containing 0.1% Tween-20 at room temperature. Low affinity binders were washed away by incubating with 60 μl of 0.2 M Glycine (pH 2.2) for 6 minutes followed by neutralization with 9 μl 1 M Tris-Cl (pH 9.1). The acid washed population was retained for further analysis. The tube was then washed again 3 times with 150 μl of PBS.
To the remaining phage-peptides bound to the TNF-α, 54 μl of Lysis Buffer A (10 mM Tris-Cl, pH 8.4, 0.1% Triton-X100) and an AmpliWax™ PCR gem (Perkin Elmer, Norwalk, USA.) was added. The tube was heated at 95° C. for 15 min and then allowed to cool. The following PCR reagents were then added:
PCR amplification was performed using 20 cycles of denaturation at 94° C. for 15 sec, annealing at 55° C. for 20 sec, and extension at 72° C. for 30 sec. The sequences of the primers (synthesized by GIBCO BRL) were: […]
The PCR product (267 base pairs (bp)) was analyzed on an 8% polyacrylamide gel along with the PCR product from a single phage peptide clone (positive control) and molecular weight markers (FIG. 2). […] This was due to too much template (i.e. phage) in the PCR reaction, and can be alleviated by decreasing the phage concentration or by decreasing the number of PCR cycles (FIG. 3). To decrease the amount of the 500-700 bp diffuse band, the PCR product was diluted appropriately for subsequent PCR reactions from this starting material to generate more products for sub-cloning purposes. Once the desired product (267 bp) was amplified, it was digested with Eagl and Acc651 restriction endonucleases to produce a 45 bp fragment containing the DNA coding for the random peptide. The 45 bp fragment was then sub-cloned into the M13KE vector (New England Biolabs; Beverly, Mass.) at the EagI and Acc65I restriction sites using standard techniques (Sambrook, et al., (1989) supra). After ligating the 45 bp fragment into the M13KE vector, the ligation reaction was transformed into chemically competent ER2537 E. coli cells. The cells were made competent with calcium chloride using a standard protocol (Sambrook, et al., (1989) supra). The M13 DNA was isolated from various transformants using a modified protocol from New England Biolab's protocol for M13 DNA preparation and then sequenced. The modification includes the use of 96-well plates as opposed to tubes.

[2] = Release of 14C-labeled peptide from collar soil on polyester cotton in Tide detergent, scintillation counting; type: binding
Procedure: Soiled shirt collars (65% polyester: 35% cotton) containing the target (collar soil) and anti-target along with the control anti-target (unstained polyester:cotton from the same shirt) were cut to a diameter of 7/32″ and placed into a 96-well microtiter plate (Millipore Corp., […] Durapore membrane; Cat. No. MAGV N22 50). Serial dilutions of a 400 μM stock solution of a soil targeting peptide SISSTPRSYHWT (SEQ ID NO: 20) and a peptide control NFFPTWILPEHT (SEQ ID NO: 78) both terminally labelled with ^14C-glycine were added to 1 g/L Tide detergent solutions (Procter and Gamble, Cincinnati, Ohio) and 60 μL aliquots were placed into the wells of the microtiter plate. The plate was incubated with shaking for 30 minutes at 32° C. followed by suction filtering of excess unbound radiolabeled peptide (Vacuum manifold; Millipore Corp. Cat. No. MAVM 096 OR). The samples were rinsed three times with 200 μL of distilled water, with shaking in between rinses, over a period of about 40 minutes. The remaining radioactivity bound to the samples was quantitated by liquid scintillation counting in a Wallac microbeta counter. […] This corresponds to a rate constant for release of the soil targeting peptide koff≦2×10^−4 sec^−1.

[3] = Ni-chelated peptide binding to collar soil on cotton or cotton alone, OPD/H2O2 absorbance assay
Procedure: A phage peptide sequence HTFQHQWTHQTR, (SEQ ID NO: 27) that binds to collar soil on cotton was identified after five rounds of biopanning as described in example 5 except that phage peptides were eluted by acid after each round using the methods described in Scott and Smith (1990) Science 249:386. The selectivity (stain vs. cotton binding) and affinity (koff) were measured for the corresponding peptide binding to collar soil as follows: A 1 mM solution of Ni chelated GGHTFQHQWTHQTR (SEQ ID NO: 28) was incubated with collar soil on cotton or cotton alone for 90 minutes at room temperature with shaking in a microtiter plate. A control peptide chelate Ni GGH was also tested under the same conditions. After pipeting off the incubation solution from the well, fabric swatches were rinsed in 200 μL water with shaking for 3 minutes. The residual bound peptide was assayed by adding 200 μL o-phenylenediamine (OPD) and 50 μL of 100 mM H2O2 and measuring the absorbance of the oxidized OPD at 420 nm. As summarized in Table 5 and FIG. 7, the selectivity ratio of stain binding to fabric is less than or equal to ≦3:1 and the affinity as measured by koff=1×10^−3 sec^−1.

[4] = ELISA of biotinylated peptide binding to skin; parameters: species or system human; settings: 200 μM biotinylated peptide in 2% body wash; FIG. 9
Source text: (§1) Peptide sequences identified in Examples 13 and 14 along with a random control peptide were C-terminally labeled with the sequence GGGK (biotin). The sequence LESTPKMK (SEQ ID NO: 115) contains the consensus sequence LEST and was isolated on hair. FTQSLPR (SEQ ID NO: 116) contains the consensus sequence TQSL and was isolated on skin. YGGFMTSE (SEQ ID NO: 117) is a control peptide.
(§2) Dark brown hair (3″ long, 4 each), moistened with 2% body wash and pre-equilibrated human skin tissues, were placed in the wells of a 24 well plate. 1 ml of a 200 μM solution of the biotinylated peptide in 2% Neutrogena body wash was added to the hair and skin samples and incubated 30 min at room temperature with gentle agitation. The solution was then pipetted off and the hair and skin samples transferred with clean tweezers to a 50 ml conical tube, washed once with 50 ml of 2% body wash, twice with 50 ml of water, and once with 50 ml of PBS; each wash step took 5 min and was performed on a rotary shaker at 20 rpm. The hair and skin samples were then transferred with clean tweezers to a fresh 24 well plate where 1 ml of streptavidin conjugated horseradish peroxidase (diluted 1/1000 in PBS) was added for 1 hr at room temperature under gentle rocking. Excess streptavidin HRP was removed by washing twice with 50 ml of PBS (5 min, 20 rpm each) in a 50 mL conical tube. […]

[5] = ELISA of biotinylated peptide binding to hair; parameters: species or system human; settings: 200 μM biotinylated peptide in 2% body wash; FIG. 9
Source text: as §1, §2

(h) TNF-α [6] = biological target: T1, (h) TNF-α; assay: IAsys biosensor binding and dissociation of phage clone on immobilized TNF-α
Procedure: The binding and dissociation of phage clone A1, amino acid sequence: RYWQDIP; Table 1, (SEQ ID NO: 3) to TNF-α was monitored using an IAsys AutoPlus Biosensor following the Labsystems Affinity Sensors IAsys Protocol 2.4 ‘Immobilization to Protein Layer: Thiol coupling to avidin’ (Thermo BioAnalysis Corp. Franklin, Mass.). Two cuvettes were first coated with avidin and one (the control) was then blocked with biotin. This was followed by activation of the lysine groups. A 15 μl aliquot of a 1 mg/ml (h) TNF-α solution was added to each cuvette. […] After blocking and washing, phage clone A1, RYWQDIP (SEQ ID NO: 3) was added to give a final titer of 5×10^11 pfu/ml.
The dissociation of the phage from the TNF-α is very slow with the dissociation constant estimated as koff<10^−4 sec^−1 (10 mM HEPES/0.05% Tween). Washing with a 10× buffer concentrate (at the 70 min time point) only removed a small portion of the phage.

Substance: WTPKPTQ (peptides screened from a phage display random peptide library) [Clone T4]
- Frequency ((h) TNF-α [1]): 2

Substance: ASTVGGL (peptides screened from a phage display random peptide library) [Clone T6]
- Frequency ((h) TNF-α [1]): 2

Substance: GSISSTPRSYHWT ([14C‑Gly]SISSTPRSYHWT)
- Affinity 10^−4 koff (sec^−1) ([2]; Table 5, Selective Targeting (PCR), 1 round of selection): ≦ 2 10^−4 sec^−1

Substance: DMIMVSI (peptides screened from a phage display random peptide library) [Clone T3]
- Frequency ((h) TNF-α [1]): 3

Substance: SISSTPRSYHWT (peptides screened from a phage display random peptide library) [Clone C4]
- total radiolabel remaining bound to the stained fabric ([2]; 1 g/L Tide, after rinsing for 40 minutes): greater than 50%
- koff, rate constant for release of the soil targeting peptide ([2]; 1 g/L Tide, collar soil on polyester cotton): ≤ 0.0002 s⁻¹

Substance: ATFPNQS (peptides screened from a phage display random peptide library) [Clone T5]
- Frequency ((h) TNF-α [1]): 2

Substance: APEPILA (peptides screened from a phage display random peptide library) [Clone T2]
- Frequency ((h) TNF-α [1]): 7

Substance: GGHTFQHQWTHQTR (peptides screened from a phage display random peptide library)
- koff ([3]; Ni-chelated peptide, dissociation from collar soil and the corresponding cotton fabric): 0.001 s⁻¹
- Affinity 10^−4 koff (sec^−1) ([3]; Table 5, Biopanning, 5 rounds of selection): 10 10^−4 sec^−1

Substance: TMLPYRP (peptides screened from a phage display random peptide library) [Clone T7]
- Frequency ((h) TNF-α [1]): 2

Substance: FTQSLPR (peptides screened from a phage display random peptide library)
- ELISA binding to skin versus hair [4]: selectively targets skin and not hair

Substance: LESTPKMK (peptides screened from a phage display random peptide library)
- ELISA binding to hair [5]: binds to hair

Substance: RYWQDIP (peptides screened from a phage display random peptide library) [Clone T1]
- Frequency ((h) TNF-α [1]): 8
- koff (dissociation of the phage from the TNF-α) ((h) TNF-α [6]; 10 mM HEPES/0.05% Tween): < 10^−4 sec^−1
- binding of phage to immobilized TNF-α ((h) TNF-α [6]; IAsys cuvette, final titer 5×10^11 pfu/ml): significant binding

Substance: NFFPTWILPEHT (peptides screened from a phage display random peptide library) [random peptide control, reference compound]
- affinity or selectivity for stained fabric ([2]; 1 g/L Tide, same assay, FIG. 6B): no affinity or selectivity
